Measured values reported in the RNAGym collection of RNA variant scans (doi:10.1073/pnas.2313332121).

B1: TPR t1 (parent)
chain: GACCAAUCUGCCCUCAGAGCUCGAGAACAUCUUCGGAUGCAGAGGAGGCAGGCUUCGGUGGCGCGAUAGCGCCAACGUCCUCAACCUCCAAUGCAUCCCACCACAUGAUGAUGCCUGAAGAGCCUUGGUUUUUUG

Variants of: B1
Assay: polymerase ribozyme fitness, log enrichment relative to wild type (log ratio); higher = more active; in vitro selection for triplet polymerase activity
Method in brief: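 Mutant libraries of each subunit of a heterodimeric triplet polymerase ribozyme were built by PCR and transcribed. Each library went through one round of in vitro selection in triplicate: annealing with biotinylated primer, partner subunit and triplets, frozen incubation at −7 °C, gel excision of extended constructs, streptavidin-bead capture and RT-PCR. Input and output libraries were Illumina-sequenced; only genotypes with ≥10 input reads and ≥1 read per output were kept. Fitness is log2(genotype enrichment/wild-type enrichment), using inverse-variance-weighted replicate averages.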

| Variant | polymerase ribozyme fitness (log ratio) |
| --- | --- |
| A41U A100C U106A U132C | -2.89 |
| A41U A83C G110A | -4 |
| C40G G69A C79U | -2.89 |
| C40U U109C | -4.01 |
| C40G A41U G45A A91U | -4.47 |
| A41U C49A G52C C72U | -3.5 |
| A41U U54C A75G C88A U133A | -1.96 |
| C40G C114G | -4.17 |
| C40G G44C C72A U78G C94G A121C G128U | -6.15 |
| C40G G63A U92G | -3.61 |
| A41U G48C C70U | -3.25 |
| C40U C56G C70U | -2.46 |
| G42A G69A | -5.77 |
| C40U G48U A50C G51A | -3.99 |
| G42A A74U A119G | -1.81 |
| G42C C88G | -3.51 |
| G42C C56A G122A | -2.92 |
| G42C C64U | -0.982 |
| A41U G120U | -1.11 |
| G42C G57C A66C | -4.36 |
| G42A C82A U87A G93C C124G | -1.42 |

| Variant | polymerase ribozyme fitness (log ratio) |
| --- | --- |
| A41C C76A C79A U112A U125C | -2.16 |
| C40U C56G G63C | -3.69 |
| A41C C62A C82U | -2.04 |
| A41G A46U G63A C82U U87G | -2.41 |
| G42C G71U U96G | -3.01 |
| A41C A105C | -5.23 |
| A41C A105G | -3.93 |
| G42C G57A C64A C85A G113U | -7.14 |
| C40U U116A | -3.34 |
| C40G C49U | -2.95 |
| A41U G44A | -2.2 |
| C40U A46C C64U | -2.21 |
| C40G G61C A118U | -1.55 |
| C40G C72G C73A U78G | -4.57 |
| A41U G51A U87G U112A A119G | -4.72 |
| G42A C73A C104U G128A | -3.49 |
| A41C C62U G110A | -3.63 |
| A41C U126G U130G | -4.83 |
| A41U U129A | -2.58 |
| C40G G63U G120A | -0.497 |
| C40G G117C | -3.98 |

| Variant | polymerase ribozyme fitness (log ratio) |
| --- | --- |
| G42C C73G C79U A95G U129C | -3.37 |
| C40U A43C C64U G93C C115A | -2.31 |
| A41C U131G | -0.589 |
| C40U C98U | -2.01 |
| A41C G48U A111C | -3.12 |
| G42A A74C G120C | -2.11 |
| A41U A90C C115G | -4.39 |
| G42C C49A U92C G117A G122A | -4.11 |
| A41U U109C C114U G120U | -4.6 |
| G42A C101U | -1.9 |
| A41U C123U | -0.183 |
| G42A G69C C124U | -2.56 |
| G42C G61A A121C U133G | 0.579 |
| G42C C56G C72A G77C A100U U132A | -3.99 |
| G42C C56G C88G C114A | -5.36 |
| G42C G120U | -1.69 |
| A41U A43U C72G G77C G93A C124G U131A | -0.181 |
| C40U G51U G58A | -4.36 |
| A41U G93C | -2.07 |
| A41U G77U C88G A111U | -6.76 |
| C40G C49U A84U | -2.42 |

| Variant | polymerase ribozyme fitness (log ratio) |
| --- | --- |
| A41C C70A A118G | -3.8 |
| A41G G45U C56G C124A | -0.22 |
| C40U G42A G63C U125G | -2.99 |
| G42A G61C C114U G117C | -5.25 |
| C40U U96G C115G A118U G122U | -3.71 |
| C40U G47A A118G | -2.47 |
| C40U A90U | -1.76 |
| C40U A43U G69U | 0.0551 |
| G42C G60A G120U | -2.21 |
| A41C U78G G122A | -1.85 |
| C40G C53A C123G | 0.48 |
| C40U A46G U78G | -0.597 |
| A41U G42C C53A C85U | -4.01 |
| A41U C72G A90C | -2.3 |
| G42C G61A | -0.466 |
| C40U G122A U130A | -1.96 |
| A41G C73U U125C | -2.74 |
| C40G C115U | -2.07 |
| C40G A43G C114U | -4.36 |
| C40G U59A | -1.68 |
